Patent US20070265206A1 (PALATIN TECHNOLOGIES, published 2007)
Bridge positions count the residues as written; N and C are the ends.

Assays:
[1] = target: T1, human natriuretic peptide receptor A (NPRA) (human, UniProt P16066 33-1061); test: cell-based or functional assay
T1 sequence (looked up): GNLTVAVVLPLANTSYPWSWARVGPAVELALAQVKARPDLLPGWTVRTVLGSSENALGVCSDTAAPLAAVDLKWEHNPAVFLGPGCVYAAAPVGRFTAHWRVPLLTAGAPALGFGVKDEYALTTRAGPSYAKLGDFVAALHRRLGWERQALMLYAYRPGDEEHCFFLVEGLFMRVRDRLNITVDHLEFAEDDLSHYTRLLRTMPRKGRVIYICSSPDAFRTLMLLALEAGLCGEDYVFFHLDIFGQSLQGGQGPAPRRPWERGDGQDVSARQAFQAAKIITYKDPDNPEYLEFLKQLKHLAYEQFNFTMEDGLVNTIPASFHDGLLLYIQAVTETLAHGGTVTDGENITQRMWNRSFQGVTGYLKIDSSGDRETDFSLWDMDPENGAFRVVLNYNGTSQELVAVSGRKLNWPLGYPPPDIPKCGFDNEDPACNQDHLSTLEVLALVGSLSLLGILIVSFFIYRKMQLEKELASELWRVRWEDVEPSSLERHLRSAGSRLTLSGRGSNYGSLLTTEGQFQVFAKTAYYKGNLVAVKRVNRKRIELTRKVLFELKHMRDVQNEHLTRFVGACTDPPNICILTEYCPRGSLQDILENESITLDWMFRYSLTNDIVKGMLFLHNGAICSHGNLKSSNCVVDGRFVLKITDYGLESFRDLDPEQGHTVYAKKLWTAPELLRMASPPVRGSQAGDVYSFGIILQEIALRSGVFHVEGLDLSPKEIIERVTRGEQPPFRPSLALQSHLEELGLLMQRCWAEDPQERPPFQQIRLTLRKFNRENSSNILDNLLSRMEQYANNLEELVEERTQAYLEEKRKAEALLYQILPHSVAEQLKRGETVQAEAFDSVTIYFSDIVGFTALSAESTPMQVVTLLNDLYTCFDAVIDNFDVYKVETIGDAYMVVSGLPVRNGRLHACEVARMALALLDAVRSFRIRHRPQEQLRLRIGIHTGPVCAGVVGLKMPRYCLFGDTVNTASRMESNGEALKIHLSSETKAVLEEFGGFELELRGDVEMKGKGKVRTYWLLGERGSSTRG

[2] = target: T1, human natriuretic peptide receptor A …; test: competitive inhibition of [125I]-ANP binding to HEK-hNPRA membrane homogenates
Protocol: Competitive binding assay. A competitive inhibition binding assay was performed using crude membrane homogenates prepared from HEK-hNPRA cells. To prepare membrane homogenates, cells were rinsed with phosphate-buffered saline and incubated for 15 minutes at 4° C. in hypotonic lysis buffer (10 mM Tris, pH 7.4+5 mM EDTA). Cells were transferred from plates to polypropylene tubes and homogenized. Homogenates were centrifuged at 25,000×g for 20 minutes. Pellets were resuspended in buffer consisting of 50 mM Tris (pH 7.4) and 1 mM EDTA, homogenized and centrifuged at 25,000×g for 20 minutes. […] On the day of an assay, homogenates were thawed and homogenized. […] Assays were stopped by addition of cold wash buffer (phosphate-buffered saline) followed by filtration using a vacuum manifold. Bound radioactivity was determined using a gamma counter. […] Data were analyzed using GraphPad Prism® curve-fitting software.

B1: mini-ANP, H-Met-cyclo(Cys-His-Phe-Gly-Gly-Arg-Met-Asp-Arg-Ile-Ser-Cys)-Tyr-Arg-NH2 (peptide)
peptide: H-MCHFGGRMDRISCYR-NH2
modifications: disulfide 2-13
SMILES: CC[C@H](C)[C@@H]1NC(=O)[C@H](CCCNC(=N)N)NC(=O)[C@H](CC(=O)O)NC(=O)[C@H](CCSC)NC(=O)[C@H](CCCNC(=N)N)NC(=O)CNC(=O)CNC(=O)[C@H](Cc2ccccc2)NC(=O)[C@H](Cc2c[nH]cn2)NC(=O)[C@@H](NC(=O)[C@@H](N)CCSC)CSSC[C@@H](C(=O)N[C@@H](Cc2ccc(O)cc2)C(=O)N[C@@H](CCCNC(=N)N)C(N)=O)NC(=O)[C@H](CO)NC1=O
notes: also called 15-mer disulfide cyclic peptide
EC50 (accumulation of intracellular cGMP) [1]: 3.3 nM
Ki [2]: 0.6 nM
